# Experimental data published in patent US8470780B2, “Methods and compositions related to targeting wounds, regenerating tissue, and tumors” (Sanford-Burnham Medical Research Institute, priority 2006, dated 2013).
# Assays:
# [1] = test system: full thickness skin wounds; assay: Accumulation of intravenously injected decorins in wound tissue (anti-6-histidine tag staining); assay type: in vivo, mice; conditions: daily intravenous injections Days 3-5; evaluated Day 5
# Protocol: Mice with full thickness skin wounds, received daily intravenous injections as indicated on Days 3-5 after the wounding (n=4 per group, 2 wounds per animal). On Day 5, the presence of decorins was evaluated with anti-6-histidine tag antibody (which stains brown) by examining two sections from each wound.
# Six 8-week-old male BALB/c mice were anesthetized with intraperitoneally-injected 2.5% avertin Skin was shaved, cleaned, and disinfected with betadine and 70% alcohol. All animal experiments received approval from the IACUC of Burnham Institute for Medical Research. Treatment trials were conducted on mice that had circular, 8 mm-diameter, full thickness (including panniculus carnosus muscle) excision wounds in the dorsal skin. […]
# (§1) The treatments were started three days after wounding and consisted of daily tail vein injections. […] The ratio was reversed from Day 7 based on previously determined homing profiles of CRK and CAR phage to wounds at different time-points. The wounds were inspected and photographed daily, and scored for complete re-epithelialization. […]
# Frozen sections were fixed in acetone for 10 min and pre-incubated with 0.5% blocking reagent for 1 hr (NEN Life Sciences, Boston, Mass.). […] The primary antibodies were detected with corresponding secondary antibodies, and each staining experiment included slides stained with species-matched immunoglobulins as negative controls. […]
# [2] = test system: full thickness excision wounds in the dorsal skin; assay: Skin wound healing treatment with decorins; assay type: in vivo, mice
# Protocol: Next, the effect of the homing peptide decorins on wound healing was examined. The daily dose of 40 μg/day was chosen based on previous decorin studies (Seidler 2006; Yang 1999). The dose was doubled on Days 4-6, coincident with the peak in TGF-β expression in wounds (Brunner 2004; Yang 1999). The treatments were started on Day 3 after wounding, when granulation tissue first forms in wounds (Brunner 2004), and continued for 7,9, or 11 days in three independent treatment experiments. Several parameters commonly used to assess wound repair and scarring were measured (Ashcroft 1999; Cheon 2006; Shah 1995). […]
# as §1
# Image analysis and quantification of granulation tissue/wound area, and hyperproliferative epidermis were done using ImageJ program (NIH, Bethesda, […].). The wounds were cut in the middle, one section from each side of the wound was evaluated, and the average of these two values was used in the analysis. The length of hyperproliferative epidermis and size of the wound tissue were determined from the Masson trichrome stained tissue sections. […]
# CHO-K cells = assay: CHO-K cell proliferation with decorins; assay type: cell-based, Chinese hamster; conditions: 0.3 μg/ml/day of decorins
# Protocol: The effect of decorin preparations on CHO-K cell proliferation was determined as described previously (Yamaguchi 1990; Yamaguchi 1988). The cells were grown in media containing fetal bovine serum that had been dialyzed in a dialysis cassette (Pierce, Rockford, Ill.). The cells were plated in duplicate at a density of 2×10^4 cells per well in 24-well plates and cultured in 600 μl of culture media. Half of the medium was replaced daily with fresh medium containing decorin. Cells were collected by trypsinization, washed and resuspended in 1 ml of PBS containing 2 μg/ml of propidium iodide (PI) and 20,000 CountBright counting beads (Invitrogen, Carlsbad, Calif.), and analyzed by counting 1,000 beads in FACS. Cell number was also determined by hemocytometer.
molecule,measurement,setting,value
"decorin: recombinant his-tagged human decorin, small leucine-rich chondroitin sulfate proteoglycan (protein, UniProt P07585 31-359, looked up, His-tag, recombinant his-tagged human decorin, small leucine-rich chondroitin sulfate proteoglycan) Decorin: DEASGIGPEVPDDRDFEPSLGPVCPFRCQCHLRVVQCSDLGLDKVPKDLPPDTTLLDLQNNKITEIKDGDFKNLKNLHALILVNNKISKVSPGAFTPLVKLERLYLSKNQLKELPEKMPKTLQELRAHENEITKVRKVTFNGLNQMIVIELGTNPLKSSGIENGAFQGMKKLSYIRIADTNITSIPQGLPPSLTELHLDGNKISRVDAASLKGLNNLAKLGLSFNSISAVDNGSLANTPHLRELHLDNNKLTRVPGGLAEHKYIQVVYLHNNNISVVGSSDFCPPGHNTKKASYSGVSLFSNPVQYWEIQPSTFRCVYVRSAIQLGNYK",decorin staining in skeletal muscle underlying the skin wounds,[1],No decorin-staining
same,decorin staining in wounds,[1],weakly positive for decorin staining
same,change in granulation tissue/scar area,[2]; Day 14 after wounding,no statistically significant changes
same,prevention of scar formation,[2]; equivalent doses,inactive
same,inhibition of CHO-K cell proliferation,CHO-K cells,inhibited the proliferation of the CHO-K cells at high concentrations
